According to patent publication US20190352409A1 (AUTOLUS, published 2019):

T1: Transmembrane activator and calcium modulator and cyclophilin ligand (CAML) interactor (TACI), on cells (human, UniProt O14836 1-293)
T1 construct: whole, on cells; also called TNFRSF13B; SupT1 TACI cells
T1 sequence (looked up): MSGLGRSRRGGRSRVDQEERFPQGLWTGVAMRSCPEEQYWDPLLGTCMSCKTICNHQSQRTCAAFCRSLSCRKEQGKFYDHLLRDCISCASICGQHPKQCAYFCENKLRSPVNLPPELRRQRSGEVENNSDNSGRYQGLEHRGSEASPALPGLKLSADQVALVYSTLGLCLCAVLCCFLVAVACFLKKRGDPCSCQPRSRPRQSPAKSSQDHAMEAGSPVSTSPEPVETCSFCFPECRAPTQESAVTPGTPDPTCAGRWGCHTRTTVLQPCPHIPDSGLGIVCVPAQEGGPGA

T2: Transmembrane activator and calcium modulator and cyclophilin ligand (CAML) interactor (TACI), on cells (human, UniProt O14836 1-293)
T2 chain: T1 sequence (looked up)

B1: 4B11 anti-TACI monoclonal antibody (mouse hybridoma) (antibody, V domains shown)
VH: EVQLQQSVAELVRPGASVKLSCTASGFNIKNTYIHWVKQRPEQGLEWIGKIDPANGNSEYAPKFQGKATITADTSSNTAYLQLSSLTSEDTTIYYCTSGYGAYWGQGTTLTVSS
VL: DIVLSQSPSSLAVSIGEKVTLSCKSSQSLLYSSNQKNYLAWFQQKPGQSLKLLIYWASTREFGVPDRFTGSGSGTDFTLTISSVKTEDLAVYYCQQYYTWTFGGGTKLEIK
notes: Tested as hybridoma supernatant from BalBC mice
B2: 2G2 anti-TACI monoclonal antibody (mouse hybridoma) (antibody, V domains shown)
VH: QVTLKESGPGMLQPSQTLSLTCSFSGFSLSTFGMGVGWIRQPSGKGLEWLAHIWWDDAQYSNPALRSRLTISKDTSKNQVFLKIANVDTADTATYYCSRIHSYYSYDEGFAYWGQGTLVTVSS
VL: DIVMTQSQKFMSTTVGDRVSITCKASQNVGTAVAWYQQKPGQSPKLLIYSASNRYTGVPDRFTGSGSGTDFTLTISNMQSEDLADYFCQQYSSYRTFGGGTKLEIKR
notes: as for B1
B3: 1G6 anti-TACI monoclonal antibody (mouse hybridoma) (antibody, V domains shown)
VH: QVQLKQSGPGLVAPSQSLSITCTVSGFSLTSYGVDWVRQSPGKGLEWLGIIWGGGRTNYNSAFKSRLSISKDNSKSQVFLKMNSLQTDDTAMYYCASGDRAADYWGQGTSVTVSS
VL: DIVMTQSQKFMSTTVGDRVTITCKASQNVGTAVAWYQQKPGQSPKLLIYSASNRYTGVPVRFTGSGSGTDFTLTINNMQSEDLADYFCQQYSSYPLTFGAGTKLELK
notes: as for B1
B4: 2H6 anti-TACI monoclonal antibody (mouse hybridoma) (antibody, V domains shown)
VH: EVQLQQSGPELVKPGASVRMSCKASGYTFTNYVMHWVKQKPGQGLEWIGYINPSNDDTKYTEKFKGKATLTSDKSSSTAYMELSSLTSEDSAVYYCARGTHGDYYALDYWGQGTSVTVSS
VL: DIVLTQSPASLAVSLGQSVTISCRASESVEYYGTSLMQWYQQKPGQAPKLLIYGASNVESGVPARFSGSGSGTDFSLNIHPVEEDDIAMYFCQQSRKVPWTFGGGTKLEI

target: T1, Transmembrane activator and calcium …; test: flow cytometry on TACI positive SupT1 cells (FIG. 6b)
Text: b) Confirmatory analysis of TACI binding by flow cytometry. Hybridoma lines were screened on TACI positive and BCMA positive SupT1 cells. The four hybridomas with the highest reactivity to SupT1 TACI cells were chosen for subcloning and characterisation
Five mice with TACI positive sera were selected for a final immunization boost before the spleens were harvested for B cell isolation and hybridoma production. Hybridoma fusions of 10×96-well plates with lymphocytes from the selected mice were performed. Hybridoma supernatants were screened for reactive anti-TACI antibodies by ELISA screening against recombinant human TACI purified protein (Peprotech, 310-17), representative data is shown in FIG. 6a. ELISA positive hybridoma supernatants were tested by flow cytometry, on SupT1 cells engineered to overexpress TACI. As a control BCMA expressing SupT1 cells were used, FIG. 6b. Candidate hybridomas were expanded.

| binding result | Binder |
| --- | --- |
| binds | B1 |
| binds | B2 |
| binds | B3 |

Target: T2, Transmembrane activator and calcium …
Test: Biacore SPR

| Kd [nM] | Binder |
| --- | --- |
| 0.379 | B1 |
| 0.924 | B2 |
| 0.051 | B4 |
| 0.21 | B3 |
